What was measured:
cynomolgus serum albumin [1] = molecular target: T1, cynomolgus serum albumin (cynomolgus); assay: binding ELISA, coated albumin, pH 7.4
T1 construct: also called CSA; cyno serum albumin

rabbit serum albumin = rabbit serum albumin (rabbit, UniProt P49065 25-608); assay: binding ELISA, coated albumin, pH 7.4
equine serum albumin = equine serum albumin (equine, UniProt P35747 25-607); assay: binding ELISA, coated albumin, pH 7.4
canine serum albumin = canine serum albumin (canine, UniProt P49822 25-608); assay: binding ELISA, coated albumin, pH 7.4
porcine serum albumin = porcine serum albumin (porcine, UniProt P08835 25-607); assay: binding ELISA, coated albumin, pH 7.4
rat serum albumin = rat serum albumin (rat, UniProt P02770 25-608); assay: binding ELISA, coated albumin, pH 7.4
human serum albumin [2] = molecular target: T2, human serum albumin (human, UniProt P02768 25-609); assay: binding ELISA, coated albumin, pH 7.4
T2 construct: mature; Bought protein; biotinylated in the Octet and HTRF assays; also called HSA; HuSA

mouse serum albumin [3] = molecular target: T3, mouse serum albumin (mouse, UniProt P07724 25-608); assay: binding ELISA, coated albumin, pH 7.4
T3 construct: also called MSA

human serum albumin [4] = molecular target: T2, human serum albumin; assay: binding ELISA on coated HSA, pH 7.4
Description: After saturation with 5% PBS Casein pH 7.5, plates were washed and a dilution of AFFIMER® polypeptides or controls were incubated for 90 minutes. Plates were then washed, and a biotinylated polyclonal antibody anti-cystatin A (R&D Systems) was added for 1 hour. Plates were washed and AFFIMER® polypeptides were detected using streptavidin-HRP. After a last washing step, TMB was added for the development of the experiment and the plates were read at 450 nm.

human serum albumin [5] = molecular target: T2, human serum albumin; assay: SPR (Biacore), immobilised HSA, Affimer analyte
cynomolgus serum albumin [6] = molecular target: T1, cynomolgus serum albumin; assay: BLI (Octet), biotinylated albumin on SA sensor, pH 6.0
In short: (§1)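 Biotinylated albumin was loaded on streptavidin sensors at 1 μg/ml for 600 s in PBS-T (0.01% Tween 20) + 1% casein at pH 6.0 or 7.4, 25° C, 1000 rpm. Kinetics came from a 1:1 global fit with reference-sensor subtraction.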

human serum albumin [7] = molecular target: T2, human serum albumin; assay: as above
In short: as §1

cynomolgus serum albumin [8] = molecular target: T1, cynomolgus serum albumin; assay: SPR (Biacore T200), albumin amine-coupled to CM5, Affimer analyte, pH 7.4
Description: (§2) Affinities for mouse, human, and cynomolgus serum were also measured at pH 7.4 for four (4) AFFIMER® binders using surface plasmon resonance (SPR) (FIG. 5, Table 5). […] A concentration titration of AFFIMER® monomers was run as analyte at a flow rate of 30 μl/min or 60 μl/min. Fc2-1, Fc3-1 and Fc4-1 kinetic data was blank subtracted and fit to a 1:1 Langmuir binding model (BIAcore Evalution software; GE) to calculate KD values.

human serum albumin [9] = molecular target: T2, human serum albumin; assay: as above
Description: as §2

mouse serum albumin [10] = molecular target: T3, mouse serum albumin; assay: as above
Description: as §2

cynomolgus serum albumin [11] = molecular target: T1, cynomolgus serum albumin; assay: Octet biolayer interferometry, biotinylated albumin on SA sensors, pH 7.4
In short: as §1

human serum albumin [12] = molecular target: T2, human serum albumin; assay: as above
In short: as §1

mouse serum albumin [13] = molecular target: T3, mouse serum albumin; assay: as above
In short: as §1

mouse serum albumin [14] = molecular target: T3, mouse serum albumin; assay: binding ELISA on coated MSA, panel title 'Affimer binding to MSA, pH 7' (legend: pH 7.4)
Description: Human (Sigma-Aldrich); Cynomolgus and Mouse (Abcam); Equine (Abcam); Canine (Abcam); Mouse (Sigma-Aldrich); Rabbit (Sigma-Aldrich); Porcine (Sigma-Aldrich);, and Rat (Sigma-Aldrich) serum albumin were coated overnight on 96 well plates (Corning Costar) at 1 μg/ml in PBS at the appropriate pH (pH 6.0 or 7.4). Plates were saturated using 5% Casein (Sigma-Aldrich) buffer in PBS. […] Plates were then washed and AFFIMER® proteins were detected using a biotinylated polyclonal antibody anti-Cystatin (R&D System) for 90 minutes. After washing, streptavidin-HRP (Thermo Fisher Scientific) was added and incubated for 30 minutes.
Briefly, PD-1 was coated overnight on the plate at 1 μg/ml in carbonate buffer. Then plates were saturated using 5% Casein/PBS buffer. […] After saturation, the mix was added to the plates and incubated for 90 minutes. Plates were then washed and the detection polyclonal antibody, biotinylated anti-PD-L1, was added. After washing the plates, streptavidin-HRP was added for 30 minutes. After a final wash, development of the reaction was performed using TMB (Pierce) and the plates were read using a plate reader at 450 nm (FIG. 26C).

T1 sequence (A2V9Z4 25-608): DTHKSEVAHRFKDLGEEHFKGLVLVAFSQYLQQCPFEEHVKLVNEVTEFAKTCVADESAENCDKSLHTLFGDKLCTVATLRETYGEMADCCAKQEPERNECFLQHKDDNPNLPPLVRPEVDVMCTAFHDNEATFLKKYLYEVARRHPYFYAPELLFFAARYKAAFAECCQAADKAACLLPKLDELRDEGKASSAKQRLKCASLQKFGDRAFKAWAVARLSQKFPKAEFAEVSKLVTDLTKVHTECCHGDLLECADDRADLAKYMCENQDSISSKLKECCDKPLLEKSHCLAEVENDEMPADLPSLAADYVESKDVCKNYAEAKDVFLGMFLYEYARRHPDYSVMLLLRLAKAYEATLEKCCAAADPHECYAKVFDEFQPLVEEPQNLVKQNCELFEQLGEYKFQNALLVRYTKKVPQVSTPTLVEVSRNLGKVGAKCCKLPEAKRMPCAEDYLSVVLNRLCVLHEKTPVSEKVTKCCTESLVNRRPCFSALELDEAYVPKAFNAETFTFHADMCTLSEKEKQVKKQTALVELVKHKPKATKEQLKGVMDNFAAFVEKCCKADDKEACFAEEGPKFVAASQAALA
T3 sequence (P07724 25-608 limits assumed): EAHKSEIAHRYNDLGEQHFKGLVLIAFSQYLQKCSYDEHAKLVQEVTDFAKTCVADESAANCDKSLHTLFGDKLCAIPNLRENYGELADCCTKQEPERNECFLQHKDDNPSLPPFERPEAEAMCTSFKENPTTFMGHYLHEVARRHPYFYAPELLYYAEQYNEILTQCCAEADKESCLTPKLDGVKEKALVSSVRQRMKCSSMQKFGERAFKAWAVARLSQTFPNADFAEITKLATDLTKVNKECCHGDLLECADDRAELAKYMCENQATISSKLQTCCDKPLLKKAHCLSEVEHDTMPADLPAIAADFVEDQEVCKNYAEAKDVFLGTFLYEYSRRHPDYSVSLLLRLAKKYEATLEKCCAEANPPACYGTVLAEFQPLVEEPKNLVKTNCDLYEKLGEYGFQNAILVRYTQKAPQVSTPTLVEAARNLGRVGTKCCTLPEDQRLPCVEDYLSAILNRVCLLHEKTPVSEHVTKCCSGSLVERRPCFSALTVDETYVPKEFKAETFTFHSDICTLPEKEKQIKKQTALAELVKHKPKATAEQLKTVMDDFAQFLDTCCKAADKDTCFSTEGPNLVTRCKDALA
Sequence of rat serum albumin (P02770 25-608 limits assumed): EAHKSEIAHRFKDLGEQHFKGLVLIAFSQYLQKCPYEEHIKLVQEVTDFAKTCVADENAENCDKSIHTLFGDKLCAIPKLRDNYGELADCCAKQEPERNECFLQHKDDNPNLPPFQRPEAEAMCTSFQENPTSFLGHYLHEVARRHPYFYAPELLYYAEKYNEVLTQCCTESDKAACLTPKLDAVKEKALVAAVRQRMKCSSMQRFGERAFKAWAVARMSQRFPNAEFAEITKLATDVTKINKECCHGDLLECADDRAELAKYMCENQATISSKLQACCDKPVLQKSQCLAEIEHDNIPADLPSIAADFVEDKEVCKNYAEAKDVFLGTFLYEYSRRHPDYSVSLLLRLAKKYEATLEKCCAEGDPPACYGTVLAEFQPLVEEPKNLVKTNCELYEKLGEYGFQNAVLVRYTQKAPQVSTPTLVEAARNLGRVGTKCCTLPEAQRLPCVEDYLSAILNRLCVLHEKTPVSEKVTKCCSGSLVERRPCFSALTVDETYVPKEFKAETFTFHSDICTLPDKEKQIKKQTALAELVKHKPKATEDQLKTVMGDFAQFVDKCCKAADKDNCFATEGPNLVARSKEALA
Sequence of rabbit serum albumin (P49065 25-608 limits assumed): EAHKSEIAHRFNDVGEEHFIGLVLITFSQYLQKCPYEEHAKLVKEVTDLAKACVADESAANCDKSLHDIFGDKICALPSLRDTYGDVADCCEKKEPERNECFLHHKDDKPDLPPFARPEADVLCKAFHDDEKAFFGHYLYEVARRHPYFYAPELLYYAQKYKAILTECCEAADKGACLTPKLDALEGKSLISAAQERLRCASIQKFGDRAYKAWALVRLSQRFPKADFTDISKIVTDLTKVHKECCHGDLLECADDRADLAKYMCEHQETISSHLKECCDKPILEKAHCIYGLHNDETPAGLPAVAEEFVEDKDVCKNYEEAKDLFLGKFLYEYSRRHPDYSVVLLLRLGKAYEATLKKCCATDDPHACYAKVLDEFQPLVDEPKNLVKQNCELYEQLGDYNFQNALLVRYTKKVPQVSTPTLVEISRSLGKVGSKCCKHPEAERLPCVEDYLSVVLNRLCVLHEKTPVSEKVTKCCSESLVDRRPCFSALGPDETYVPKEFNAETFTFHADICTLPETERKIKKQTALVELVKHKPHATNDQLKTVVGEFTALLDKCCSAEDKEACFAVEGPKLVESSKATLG
Sequence of equine serum albumin (P35747 25-607 limits assumed): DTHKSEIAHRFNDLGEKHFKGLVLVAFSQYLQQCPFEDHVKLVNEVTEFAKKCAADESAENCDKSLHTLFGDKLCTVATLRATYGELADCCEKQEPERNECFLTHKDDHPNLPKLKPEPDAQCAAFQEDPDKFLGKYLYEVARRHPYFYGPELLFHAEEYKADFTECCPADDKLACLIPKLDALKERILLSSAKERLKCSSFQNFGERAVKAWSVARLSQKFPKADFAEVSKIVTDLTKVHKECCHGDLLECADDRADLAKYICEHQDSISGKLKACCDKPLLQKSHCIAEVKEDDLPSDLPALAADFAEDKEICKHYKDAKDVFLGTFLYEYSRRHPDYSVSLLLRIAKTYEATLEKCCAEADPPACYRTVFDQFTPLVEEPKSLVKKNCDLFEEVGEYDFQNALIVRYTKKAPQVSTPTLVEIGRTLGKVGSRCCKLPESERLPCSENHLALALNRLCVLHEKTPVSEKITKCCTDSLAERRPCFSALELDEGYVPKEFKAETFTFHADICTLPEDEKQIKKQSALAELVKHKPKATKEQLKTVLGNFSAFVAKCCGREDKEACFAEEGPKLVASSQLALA
Sequence of canine serum albumin (P49822 25-608 limits assumed): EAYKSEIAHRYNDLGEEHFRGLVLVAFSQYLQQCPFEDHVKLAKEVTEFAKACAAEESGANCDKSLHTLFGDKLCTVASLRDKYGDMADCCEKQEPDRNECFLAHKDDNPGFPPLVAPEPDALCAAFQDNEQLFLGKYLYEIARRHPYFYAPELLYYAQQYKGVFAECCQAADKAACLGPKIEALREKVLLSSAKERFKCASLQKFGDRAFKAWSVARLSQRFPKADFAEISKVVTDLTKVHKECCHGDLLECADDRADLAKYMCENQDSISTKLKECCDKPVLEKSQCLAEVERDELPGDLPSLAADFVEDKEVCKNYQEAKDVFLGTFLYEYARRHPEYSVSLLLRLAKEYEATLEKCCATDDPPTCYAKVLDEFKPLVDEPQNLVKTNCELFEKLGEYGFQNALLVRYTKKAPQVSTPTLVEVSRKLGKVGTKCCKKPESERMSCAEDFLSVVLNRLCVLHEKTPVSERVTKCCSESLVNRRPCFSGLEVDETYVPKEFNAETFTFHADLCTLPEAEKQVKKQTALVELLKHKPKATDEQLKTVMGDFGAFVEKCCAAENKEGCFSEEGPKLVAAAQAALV
Sequence of porcine serum albumin (P08835 25-607 limits assumed): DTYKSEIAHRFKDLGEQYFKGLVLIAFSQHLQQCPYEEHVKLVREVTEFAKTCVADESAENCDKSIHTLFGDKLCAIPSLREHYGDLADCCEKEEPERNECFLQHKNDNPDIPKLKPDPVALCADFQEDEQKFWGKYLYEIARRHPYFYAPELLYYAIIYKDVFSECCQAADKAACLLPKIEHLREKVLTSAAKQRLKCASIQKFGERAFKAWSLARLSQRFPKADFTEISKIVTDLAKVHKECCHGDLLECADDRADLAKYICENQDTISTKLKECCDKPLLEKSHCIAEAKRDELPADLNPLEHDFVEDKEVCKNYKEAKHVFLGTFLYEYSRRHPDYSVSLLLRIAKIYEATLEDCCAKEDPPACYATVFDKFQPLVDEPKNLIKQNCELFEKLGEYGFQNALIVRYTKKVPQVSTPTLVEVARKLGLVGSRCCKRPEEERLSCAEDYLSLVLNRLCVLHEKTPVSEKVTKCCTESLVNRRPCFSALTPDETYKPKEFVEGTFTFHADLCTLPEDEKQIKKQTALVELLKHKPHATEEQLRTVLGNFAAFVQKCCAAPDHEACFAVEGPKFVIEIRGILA

B1: HSA-41 (designed binder)
chain: MIPRGLSEAKPATPEIQEIVDKVKPQLEEKTNETYGKLEAVQYKTQVLANFFQRRWPGSTNYYIKVRAGDNKYMHLKVFNGPWKFRNTDRGADRVLTGYQVDKNKDDELTGFHHHHHH
notes: also called HSA-41 parent; HSA-41 AH parent
- EC50 (cynomolgus serum albumin [1]): 12.8 nM
- EC50 (rabbit serum albumin): 381 nM
- EC50 (equine serum albumin): 150 nM
- EC50 (canine serum albumin): 21.5 nM
- EC50 (porcine serum albumin): 51.7 nM
- EC50 (rat serum albumin): 4.18 nM
- EC50 (human serum albumin [2]): 0.05 nM
- EC50 (mouse serum albumin [3]): 42.5 nM
- EC50 (human serum albumin [4]): 0.04 nM
- Kd (human serum albumin [5]): 2.4 nM
- koff (human serum albumin [5]): 0.00354 s⁻¹
- kon (human serum albumin [5]): 1.48e+06 M⁻¹ s⁻¹
- Kd (cynomolgus serum albumin [6]): 105 nM
- Kd (human serum albumin [7]): 7.1 nM
- Kd (cynomolgus serum albumin [8]): 112 nM
- koff (cynomolgus serum albumin [8]): 0.0546 s⁻¹
- kon (cynomolgus serum albumin [8]): 488000 M⁻¹ s⁻¹
- Kd (human serum albumin [9]): 2.59 nM
- koff (human serum albumin [9]): 0.0037 s⁻¹
- kon (human serum albumin [9]): 1.43e+06 M⁻¹ s⁻¹
- Kd (mouse serum albumin [10]): 67.8 nM
- koff (mouse serum albumin [10]): 0.139 s⁻¹
- kon (mouse serum albumin [10]): 2.04e+06 M⁻¹ s⁻¹
- koff (cynomolgus serum albumin [11]): 0.0177 s⁻¹
- kon (cynomolgus serum albumin [11]): 248000 M⁻¹ s⁻¹
- koff (human serum albumin [12]): 0.00198 s⁻¹
- kon (human serum albumin [12]): 379000 M⁻¹ s⁻¹
- koff (mouse serum albumin [13]): 0.0318 s⁻¹
- kon (mouse serum albumin [13]): 663000 M⁻¹ s⁻¹
- EC50 (read off the curve) (mouse serum albumin [14]): ~6 nM

Reference: US20230272011A1 (AVACTA LIFE SCIENCES, published 2023)
